Data: patent US20230235013A1 (MABSOLVE, published 2023)
Residue numbers refer to the chain shown, from its start. In names and notes the source's numbering stands.

B1: anti-CD20 human IgG1 L234D/L235I/G236R (antibody)
heavy: QVQLQQPGAELVKPGASVKMSCKASGYTFTSYNMHWVKQTPGRGLEWIGAIYPGNGDTSYNQKFKGKATLTADKSSSTAYMQLSSLTSEDSAVYYCARSTYYGGDWYFNVWGAGTTVTVSSASTKGPSVFPLAPSSKSTSGGTAALGCLVKDYFPEPVTVSWNSGALTSGVHTFPAVLQSSGLYSLSSVVTVPSSSLGTQTYICNVNHKPSNTKVDKKVEPKSCDKTHTCPPCPAPEDIRGPSVFLFPPKPKDTLMISRTPEVTCVVVDVSHEDPEVKFNWYVDGVEVHNAKTKPREEQYNSTYRVVSVLTVLHQDWLNGKEYKCKVSNKALPAPIEKTISKAKGQPREPQVYTLPPSRDELTKNQVSLTCLVKGFYPSDIAVEWESNGQPENNYKTTPPVLDSDGSFFLYSKLTVDKSRWQQGNVFSCSVMHEALHNHYTQKSLSLSPGK
light: QIVLSQSPAILSASPGEKVTMTCRASSSVSYIHWFQQKPGSSPKPWIYATSNLASGVPVRFSGSGSGTSYSLTISRVEAEDAATYYCQQWTSNPPTFGGGTKLEIKRTVAAPSVFIFPPSDEQLKSGTASVVCLLNNFYPREAKVQWKVDNALQSGNSQESVTEQDSKDSTYSLSSTLTLSKADYEKHKVYACEVTHQGLSSPVTKSFNRGEC
notes: also called 1-22; copies: 2 + 2
B2: anti-CD20 human IgG1 L234D/L235M/G236R (antibody)
heavy: B1 heavy with I239M
light: B1 light
notes: also called 1-25; copies: 2 + 2
B3: anti-CD20 human IgG1 L234D/L235N/G236R (antibody)
heavy: B1 heavy with I239N
light: B1 light
notes: also called 1-26; copies: 2 + 2
B4: anti-CD20 human IgG1 L234D/L235Q/G236R (antibody)
heavy: B1 heavy with I239Q
light: B1 light
notes: also called 1-27; 2-9; copies: 2 + 2
B5: anti-CD20 human IgG1 L234D/L235R/G236R (antibody)
heavy: B1 heavy with I239R
light: B1 light
notes: also called 1-28; copies: 2 + 2
B6: anti-CD20 human IgG1 L234D/L235T/G236R (antibody)
heavy: B1 heavy with I239T
light: B1 light
notes: also called 1-30; 2-11; copies: 2 + 2
B7: anti-CD20 human IgG1 L234D/L235V/G236R (antibody)
heavy: B1 heavy with I239V
light: B1 light
notes: also called 1-31; copies: 2 + 2
B8: anti-CD20 human IgG1 L234E/G236R (antibody)
heavy: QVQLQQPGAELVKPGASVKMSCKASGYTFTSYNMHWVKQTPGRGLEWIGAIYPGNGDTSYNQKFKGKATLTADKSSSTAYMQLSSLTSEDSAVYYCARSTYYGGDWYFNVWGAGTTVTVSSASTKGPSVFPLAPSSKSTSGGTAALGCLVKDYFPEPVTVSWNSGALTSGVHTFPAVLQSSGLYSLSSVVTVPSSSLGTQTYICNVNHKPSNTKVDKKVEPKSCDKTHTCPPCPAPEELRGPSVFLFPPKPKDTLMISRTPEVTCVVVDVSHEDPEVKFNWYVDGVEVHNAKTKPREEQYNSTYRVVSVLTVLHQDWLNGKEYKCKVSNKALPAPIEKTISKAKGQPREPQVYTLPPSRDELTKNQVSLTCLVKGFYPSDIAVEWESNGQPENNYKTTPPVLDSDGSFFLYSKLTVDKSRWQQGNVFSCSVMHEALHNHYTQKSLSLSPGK
light: B1 light
notes: also called 1-39; 2-15; copies: 2 + 2
B9: anti-CD20 human IgG1 L234E/L235A/G236R (antibody)
heavy: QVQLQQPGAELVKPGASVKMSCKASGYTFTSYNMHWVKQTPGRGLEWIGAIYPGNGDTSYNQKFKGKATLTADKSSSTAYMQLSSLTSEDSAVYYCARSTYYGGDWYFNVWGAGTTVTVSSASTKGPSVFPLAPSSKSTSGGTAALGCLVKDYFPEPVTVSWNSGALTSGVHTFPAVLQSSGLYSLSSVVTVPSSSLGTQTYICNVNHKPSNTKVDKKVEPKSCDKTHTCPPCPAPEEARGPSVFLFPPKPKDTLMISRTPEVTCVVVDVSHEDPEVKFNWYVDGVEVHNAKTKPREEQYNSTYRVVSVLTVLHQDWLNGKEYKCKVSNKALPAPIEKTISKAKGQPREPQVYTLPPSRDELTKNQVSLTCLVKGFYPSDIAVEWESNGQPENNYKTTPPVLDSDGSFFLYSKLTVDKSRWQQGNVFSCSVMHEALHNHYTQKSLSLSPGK
light: B1 light
notes: also called 1-32; copies: 2 + 2
B10: anti-CD20 human IgG1 L234E/L235E/G236R (antibody)
heavy: B1 heavy with D238E, I239E
light: B1 light
notes: also called 1-34; copies: 2 + 2
B11: anti-CD20 human IgG1 L234E/L235G/G236R (antibody)
heavy: B1 heavy with D238E, I239G
light: B1 light
notes: also called 1-35; copies: 2 + 2
B12: anti-CD20 human IgG1 L234E/L235H/G236R (antibody)
heavy: B1 heavy with D238E, I239H
light: B1 light
notes: also called 1-36; 2-13; copies: 2 + 2

These binders were tested against T1, Histidine-tagged recombinant human FcγRI (CD64) (human, UniProt P12314 16-288) (assay: SPR, culture supernatant, captured His-FcγRI;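 further: biacore T200 SPR at 25 °C, anti-His capture, supernatants of HEK293 cells expressing IgG1 Fc variants injected 1 min, reference-subtracted response read 55 s after injection start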).
T1 construct: bought; also called Sino Biological Cat. No. 12056-H08H
Binder B1 has a Mean binding response of 25.3 RU.
In the case of B2, the Mean binding response is reported as 28.4 RU.
B3 was tested, and the Mean binding response was 26.5 RU.
For B4, the Mean binding response was 8.3 RU.
For B5, the Mean binding response was 47 RU.
B6 was tested, and the Mean binding response was 4.3 RU.
B7 gave a Mean binding response of 27.2 RU.
B8 gave a Mean binding response of 17.6 RU.
B9 showed a Mean binding response of 44.1 RU.
Work on B10 yielded a Mean binding response of 30.9 RU.
Binder B11 has a Mean binding response of 71.2 RU.
Binder B12 has a Mean binding response of 21.4 RU.
